Experimental data: patent US20240158799, “[…] THAT […] BIND TO A SARS-COV-2 VIRUS NUCLEOCAPSID PROTEIN” (IQ SCIENCE LIMITED, published 2024)

B1: N11 (ssDNA)
DNA: TAACCACATAACCGCAAGACGACGCGATACAAAACACTACTAATCTCTCGTCGCACTAGTATTGTGCTACTCTCCTCGT
B2: N08 (ssDNA)
DNA: TAACCACATAACCGCAAGACCACACGCACGAAAACAATTGACATGAAATTTACGGCTCTTATTGTGCTACTCTCCTCGT
B3: N06 (ssDNA)
DNA: TAACCACATAACCGCAAGATCCCGATAGACCCGCGTCTCATGTACCTTACATGCTACGATATTGTGCTACTCTCCTCGT
B4: SS04 (ssDNA)
DNA: TAACCACATAACCGCAAGACGAACGAACCATATAACGCGTAGTAACATCCAAGGCGCCCTATTGTGCTACTCTCCTCGT
B5: SS48 (ssDNA)
DNA: TAACCACATAACCGCAAGACGACGACACAAAAGCATTTCGGCAATCCGACAGTGGTCCATATTGTGCTACTCTCCTCGT
B6: SS12 (ssDNA)
DNA: TAACCACATAACCGCAAGACGATGGCCGCAACCGAGAAACTATGACGATGGATCACGGCTATTGTGCTACTCTCCTCGT
B7: SS18 (ssDNA)
DNA: TAACCACATAACCGCAAGACCAGCAGAAAACTCAACATAAGCAGCAGTTCGGGCGCTACTATTGTGCTACTCTCCTCGT
B8: SS20 (ssDNA)
DNA: TAACCACATAACCGCAAGACGAACACCGATGCCGCGCACAATCGTGTAAACGGATGTCCTATTGTGCTACTCTCCTCGT
B9: SS10 (ssDNA)
DNA: TAACCACATAACCGCAAGACGCACGCAAAACTTTCAGTAATCCTAAGATGCCATGTTACTATTGTGCTACTCTCCTCGT

Each binder was assayed against SARS-CoV-2 nucleocapsid protein (SARS-CoV-2, UniProt P0DTC9 P0DTC9:1-419).

Binder | Kd [nM]
B1 | 29.6
B2 | 18.7
B3 | 25.1

The binders below were run against SARS-CoV-2 spike protein (S1/S2 complex) (SARS-CoV-2, UniProt P0DTC2 P0DTC2:14-1213).

Binder | binding result
B4 | binds
B5 | binds
B6 | binds
B7 | binds
B8 | binds
B9 | binds
